In one test the test system is HUVECs. As to the kind of experiment: Tube formation assay. It is filed as cell-based, human. How it is done: (§1) FIG. 2. (A) BLI binding affinity traces for minibinder or ^8RGD^10/GGG mutant against α5β1 in indicated buffers. Minibinder affinity to integrin α5β1 is dependent on metal ion presence and RGD motif. All affinity data was collected by Octet™ R8 and binding affinity was estimated by the Octet™ ForteBio software package. (B) Minibinder has no detectable affinity in presence of 500 nM or 1000 nM integrin αvβ1, αvβ3, αvβ6, αvβ8 and α8β1. (C) Cell surface titration of minibinder 4584_V5.3 and 00179_v4.1 against K562 cells wild type. […] Integrin α5 subunit and β1 subunit were stained with integrin α5 and active integrin β1 subunit specific antibody, respectively. (E) Quantification of (D). Quantification was counted as a percentage of mb-sheets that colocalized with staining of a5 and b1, a5 only, b1 only, or none; 30-35 sheets were counted in each biological repeat. […] Vascular stability was analyzed at 12-h timepoints. […] (G) Quantification of (F). The number of nodes, meshes, and tubes from images in (F) were quantified using an angiogenesis analyzer plug-in in ImageJ. Statistical significance of each were analyzed using One-way Anova Bonferroni's multiple comparison test. […] The wound area of T0 and T12 time points were quantified using imageJ and level of cell migration were calculated using this equation (AreaT0-T12)/AreaT0, all samples were normalized to PBS as fold change. […]

The target of test [1] is T1, active form of integrin α5β1 (Homo sapiens, UniProt P05556+P08648).
T1 construct: endogenous in cells
As to the kind of experiment: Colocalization of minibinder conjugated to GFP-tagged protein sheets with integrin staining. The class given is cell-based. The following applies: α5 and active β1 specific antibodies. How it is done: as §1

In a further test the target is integrin avb3 (Homo sapiens, UniProt P05106+P06756). As to the kind of experiment: BLI cross specificity, integrin avb3. It is filed as binding. To be noted: 500 nM integrin (FIG. 2B legend: 500 nM or 1000 nM), integrin assay buffer.
Chain of integrin avb3 (P06756 31-889 limits assumed): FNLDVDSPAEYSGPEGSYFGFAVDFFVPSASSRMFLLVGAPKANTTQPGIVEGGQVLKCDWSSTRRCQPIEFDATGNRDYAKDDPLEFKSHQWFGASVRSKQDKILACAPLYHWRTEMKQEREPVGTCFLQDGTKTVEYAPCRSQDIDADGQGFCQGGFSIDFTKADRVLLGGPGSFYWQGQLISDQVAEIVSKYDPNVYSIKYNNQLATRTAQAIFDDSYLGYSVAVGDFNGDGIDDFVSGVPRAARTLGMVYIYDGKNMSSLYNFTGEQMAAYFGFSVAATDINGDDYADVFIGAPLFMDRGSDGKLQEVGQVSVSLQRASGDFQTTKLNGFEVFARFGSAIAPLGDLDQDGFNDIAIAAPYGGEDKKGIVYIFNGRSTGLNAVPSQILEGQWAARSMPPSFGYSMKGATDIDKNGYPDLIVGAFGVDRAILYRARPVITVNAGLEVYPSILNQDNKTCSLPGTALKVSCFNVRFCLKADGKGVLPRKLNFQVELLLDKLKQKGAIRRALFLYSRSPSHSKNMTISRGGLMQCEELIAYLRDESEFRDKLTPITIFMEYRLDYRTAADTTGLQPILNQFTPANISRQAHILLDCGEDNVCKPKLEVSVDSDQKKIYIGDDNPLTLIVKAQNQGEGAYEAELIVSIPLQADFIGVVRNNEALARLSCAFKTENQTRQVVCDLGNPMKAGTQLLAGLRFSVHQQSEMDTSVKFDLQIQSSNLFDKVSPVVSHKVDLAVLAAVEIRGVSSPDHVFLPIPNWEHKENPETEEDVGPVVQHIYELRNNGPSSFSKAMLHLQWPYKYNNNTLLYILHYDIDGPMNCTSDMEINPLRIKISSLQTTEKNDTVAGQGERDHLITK
Chain of integrin avb3 (P06756 891-992 partner limits assumed): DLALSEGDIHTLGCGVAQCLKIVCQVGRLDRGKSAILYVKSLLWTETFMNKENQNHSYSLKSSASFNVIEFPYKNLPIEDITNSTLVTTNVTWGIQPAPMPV
Chain of integrin avb3 (P05106 27-718 limits assumed): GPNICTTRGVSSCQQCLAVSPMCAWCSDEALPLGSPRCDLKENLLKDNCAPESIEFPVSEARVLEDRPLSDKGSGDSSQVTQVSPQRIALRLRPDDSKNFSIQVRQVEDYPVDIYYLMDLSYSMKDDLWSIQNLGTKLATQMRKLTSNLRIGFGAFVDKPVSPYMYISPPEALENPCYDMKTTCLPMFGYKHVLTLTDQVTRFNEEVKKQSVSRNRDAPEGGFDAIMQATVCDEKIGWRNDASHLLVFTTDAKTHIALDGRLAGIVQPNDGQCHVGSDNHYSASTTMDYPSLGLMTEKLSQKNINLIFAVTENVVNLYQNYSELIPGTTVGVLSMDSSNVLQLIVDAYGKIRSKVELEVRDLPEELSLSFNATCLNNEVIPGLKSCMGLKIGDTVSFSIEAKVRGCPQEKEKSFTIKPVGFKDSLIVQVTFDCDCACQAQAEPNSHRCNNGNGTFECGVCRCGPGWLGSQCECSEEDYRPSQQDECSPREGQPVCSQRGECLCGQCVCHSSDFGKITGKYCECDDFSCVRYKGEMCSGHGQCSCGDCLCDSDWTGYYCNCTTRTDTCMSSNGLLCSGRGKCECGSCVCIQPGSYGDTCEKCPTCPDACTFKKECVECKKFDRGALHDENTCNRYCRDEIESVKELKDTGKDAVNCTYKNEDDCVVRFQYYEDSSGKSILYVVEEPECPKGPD

T1 sequence (P08648 42-894 limits assumed): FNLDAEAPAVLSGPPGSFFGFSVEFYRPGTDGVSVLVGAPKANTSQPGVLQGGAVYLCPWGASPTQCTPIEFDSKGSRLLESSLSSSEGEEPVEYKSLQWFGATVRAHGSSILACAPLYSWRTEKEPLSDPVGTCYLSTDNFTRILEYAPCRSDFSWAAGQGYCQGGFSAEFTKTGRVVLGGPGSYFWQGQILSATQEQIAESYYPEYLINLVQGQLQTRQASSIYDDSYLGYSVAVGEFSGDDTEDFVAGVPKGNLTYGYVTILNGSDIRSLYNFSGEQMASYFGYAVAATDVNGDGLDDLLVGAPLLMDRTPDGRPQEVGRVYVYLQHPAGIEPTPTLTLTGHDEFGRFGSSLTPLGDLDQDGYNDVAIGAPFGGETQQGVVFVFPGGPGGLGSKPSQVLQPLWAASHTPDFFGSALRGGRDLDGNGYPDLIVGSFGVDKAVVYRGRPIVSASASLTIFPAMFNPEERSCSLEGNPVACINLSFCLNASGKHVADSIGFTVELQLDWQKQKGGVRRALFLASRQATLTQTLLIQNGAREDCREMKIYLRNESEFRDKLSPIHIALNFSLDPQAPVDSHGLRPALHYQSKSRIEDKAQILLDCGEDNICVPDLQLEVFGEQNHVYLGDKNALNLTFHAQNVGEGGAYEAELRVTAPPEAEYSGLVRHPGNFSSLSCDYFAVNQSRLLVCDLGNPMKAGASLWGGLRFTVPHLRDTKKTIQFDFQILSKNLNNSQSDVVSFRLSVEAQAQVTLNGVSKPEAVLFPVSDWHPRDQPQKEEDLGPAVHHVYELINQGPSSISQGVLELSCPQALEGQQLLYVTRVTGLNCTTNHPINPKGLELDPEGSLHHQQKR
T1 sequence (P08648 895-1049 partner limits assumed): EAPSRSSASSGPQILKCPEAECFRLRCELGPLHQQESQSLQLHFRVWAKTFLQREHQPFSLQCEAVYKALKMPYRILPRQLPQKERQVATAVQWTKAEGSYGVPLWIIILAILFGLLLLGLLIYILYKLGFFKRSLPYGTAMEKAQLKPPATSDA
T1 sequence (P05556 21-798): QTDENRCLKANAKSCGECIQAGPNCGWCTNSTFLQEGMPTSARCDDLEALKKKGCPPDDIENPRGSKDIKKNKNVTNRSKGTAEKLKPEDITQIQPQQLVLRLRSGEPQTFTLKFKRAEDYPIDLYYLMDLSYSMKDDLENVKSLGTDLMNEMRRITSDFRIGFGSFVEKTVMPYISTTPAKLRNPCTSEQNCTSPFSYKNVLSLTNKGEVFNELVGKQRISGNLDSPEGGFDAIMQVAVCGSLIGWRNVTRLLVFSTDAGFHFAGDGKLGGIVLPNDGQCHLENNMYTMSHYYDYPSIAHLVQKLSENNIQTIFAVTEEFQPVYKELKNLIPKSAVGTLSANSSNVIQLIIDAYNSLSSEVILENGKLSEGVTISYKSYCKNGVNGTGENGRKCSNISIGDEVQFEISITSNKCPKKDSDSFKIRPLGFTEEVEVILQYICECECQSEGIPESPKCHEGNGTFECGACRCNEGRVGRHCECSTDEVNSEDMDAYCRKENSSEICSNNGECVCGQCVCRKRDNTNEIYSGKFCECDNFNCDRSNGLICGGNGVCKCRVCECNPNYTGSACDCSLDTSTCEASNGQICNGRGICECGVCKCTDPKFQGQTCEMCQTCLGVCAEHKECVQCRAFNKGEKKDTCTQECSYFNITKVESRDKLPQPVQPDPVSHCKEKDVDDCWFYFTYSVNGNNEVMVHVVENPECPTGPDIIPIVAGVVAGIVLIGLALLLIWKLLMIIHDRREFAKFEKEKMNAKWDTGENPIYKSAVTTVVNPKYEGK

B1: 00179_v4.1: highest affinity α5β1 minibinder, sequence SELIIHGRGDFPSSELERLRERFERLGIKVRVDHKVLTLIGISEEEAERLARELRKRGIWVEIRK (protein)
chain: SELIIHGRGDFPSSELERLRERFERLGIKVRVDHKVLTLIGISEEEAERLARELRKRGIWVEIRK
Regarding B1, in the test on HUVECs (HUVEC cells, 0, 0.1, 1, 10 and 100 nM, 12-h timepoint), the vascular stability entry is recorded as “decrease in vascular stability”. The tube formation entry in the test on HUVECs (HUVECs, 10 nM and 100 nM, 12 hours, compared to PBS control) is reported as “significantly attenuated”. The “localization of minibinder sheet with integrin α5 and active β1 staining” value in test [1] is reported as “colocalized with active form of integrin α5β1”. Also, the “binding to integrin avb3” value in the test with integrin avb3 was “No detectable binding”.

(Values after patent US20240383964A1, “De Novo Designed alpha(5) beta(1) Integrin selective minibinders” (UNIVERSITY OF WASHINGTON, priority 2023, published 2024).)
